Laboratory results from patent US20170165321A1, “METHOD FOR REDUCING AND/OR DELAYING PATHOLOGICAL EFFECTS OF HUMAN IMMUNODEFICIENCY VIRUS I (HIV) OR FOR REDUCING THE RISK OF DEVELOPING ACQUIRED IMMUNODEFICIENCY SYNDROME (AIDS)” (Bionor Immuno AS, priority 2014, published 2017).
Where no end group is shown, it is not given here.

How the values were obtained:
HIV-specific T-cells = conditions: IMiD present during in vitro T-cell stimulation; Keersmaecker et al.; cited from earlier work
[1] = system: HIV-1 expression in latently infected cell lines and primary T cells; conditions: cited from earlier work
HIV positive subjects [2] = assay: Phase II dose-finding study CTN B-HIV 2/2001; assay type: in vivo, human
Experimental: The Phase II dose-finding study (CTN B-HIV 2/2001) enrolled 40 HIV positive subjects, of which 38 completed the trial. Subjects were maintained on ART and treated with 10 immunizations at a dose of 0.4 mg (20 subjects) or 1.2 mg (20 subjects) per Vacc 4x injection, over a period of 26 weeks. Immunizations with Vacc 4x were performed following injection of rhu-GM-CSF (Leucomax [molgramostim]) as a local adjuvant. ART was interrupted from Week 26 to Week 30 to allow exposure to the subject's own virus (autologous immunization). ART was resumed from Week 30 to Week 38 to allow maturation of immune responses to the Vacc 4x peptides and to the subject's own virus. ART was discontinued from Week 38 to Week 52 when the study was formally concluded. […] One subject experienced a transient vasovagal reaction in conjunction with immunization and the DTH test at Week 26 and Week 38. A second subject experienced a vasovagal reaction in conjunction with the DTH test at Week 52. For the laboratory parameters, vital signs, and performance status, no changes attributable to immunization were observed.
The dose-dependent differences in DTH reactions were maintained throughout the study. […] ART was interrupted at Week 38 with planned restart when CD4 counts fell to less than 200/μL or when AIDS- or HIV related events were observed (i.e. clinical practice).
However, 14 weeks after the last interruption of ART (Week 52), the mean CD4 counts were still above 200×10^6 cells/L. No difference between the LD and the HD groups was observed. The majority of subjects remained off ART following completion of the study (Week 52); permission was given to follow the subjects until they resumed ART. The duration of treatment interruption was linked to immune responsiveness to the peptides. […] The median treatment interruption achieved for all the subjects that participated in the Vacc-4x Phase II clinical study was 31 months.

HIV positive subjects [3] = assay: Open-label re-boost follow-up study CTN BI Vacc-4x/2009/1; assay type: in vivo, human
From the text: CTN BI Vacc-4x/2009/1 was an open-label follow-up of study CTN B-HIV-2/2001 to determine whether a re-boost with Vacc-4x could reactivate or increase the immune response obtained during the immunization performed in the CTN B-HIV-2/2001 study. The secondary objectives were to evaluate: the in vivo immunogenicity of Vacc-4x by evaluation of DTH and to compare the DTH response to DTH in the initial study; the effect of Vacc-4x on CD4 counts, CD8 counts and HIV viral RNA; and the safety and tolerability of Vacc-4x. All 26 subjects included in the study received two booster administrations of Vacc-4x.

rabbit = assay: Rabbit study of intradermal Vacc-4x with concomitant GM-CSF; assay type: in vivo
Experimental: In a rabbit study the effect of Vacc-4x was evaluated in the presence of concomitant GM-CSF, the adjuvant used in the clinical program.

[4] = system: patients infected with HIV-1; assay: Phase II randomized placebo-controlled study CT-BI Vacc-4x 2007/1; assay type: in vivo, human
Experimental: The Phase II Study CT-BI Vacc-4x 2007/1 (EudraCT Number 2007-006302-13) was performed in US and Europe (UK, Germany, Spain and Italy). The study was a randomized, double-blind, multicenter, immunogenicity study of Vacc-4x versus placebo in patients infected with HIV-1 who have maintained an adequate response to ART. The primary objective was to evaluate the effect of Vacc-4x immunizations versus placebo on CD4 counts, T-cell function (ELISPOT, T-cell proliferative responses and intracellular cytokine staining) and the response to interruption of ART. The necessity to resume ART between the interruption of ART at Week 28 and the end of the study at Week 52, due to decreased CD4 count or increased viral loads, was monitored as one of the primary efficacy endpoints.

rats = assay: Single-dose intravenous toxicity study in rats; assay type: in vivo, rat
Experimental: (§1) Toxicity studies were performed in mice and rats on the peptide composition of the vaccine in Example 2. The mouse was selected for the study to provide comparative data from a second commonly used rodent species. The test substance was a mixture of four peptides supplied as one vial containing lyophilised material for reconstitution with physiological saline, and dose levels were expressed in terms of total peptide load. The individual peptides was present in ratio 1:1:1:1 w/w giving dose levels of each peptide of 0.0075 mg/kg body weight, 0.075 mg/kg body weight and 0.75 mg/kg body weight, which are up to 500 fold the intended human dose. The test animals were divided into four groups of ten animals each (five males and five females); a saline control group and groups for low, intermediate and high doses. The test composition was administered once, by intravenous infusion into a tail vein at a dose rate of 3 ml/minute. The animals were killed at day 15 and 16 by intraperitoneal injection of sodium pentobarbitone.

[5] = system: HIV-1 DNA (HIV-1 gag gene); assay: Proviral DNA by real-time PCR in re-boosting study CT-BI Vacc-4x 2012/1; assay type: in vivo, human; conditions: PP
Experimental: The study CT-BI Vacc-4x 2012/1 (EudraCT Number: 2012-002281-12) is an open label, multicenter, follow-up, re-boosting study of subjects who previously completed the immunization regimen with Vacc-4x active and stopped ART (at Week 28) in the CT-BI Vacc-4x 2007/1 Study (EudraCT Number 2007-006302-13). No restart of ART is required. The subjects will be re-boosted with two immunizations (Visit 2 and Visit 3) of Vacc-4x, 1.2 mg peptides (12 mg/mL), with a 2 week interval between immunizations.
HIV-1 DNA levels will be determined by real-time PCR (Taqman) assay targeting HIV-1 gag gene. Briefly, DNA for each subject at visit 2, 4, 6, 9 and 10 will be extracted from total PBMCs (1-4 million cells), eluted in appropriate storage buffer, quantified and stored at −20° C. until used. Equal amounts of DNA (≈300 ng) will be used to quantify gag and albumin genes in order to determine the number of copies of HIV-DNA per million of cells.
There was a decrease in proviral DNA levels of approximately 50% after immunization while on ART, based on geometric means.

mice = assay: Single-dose intravenous toxicity study in mice; assay type: in vivo, mouse
Experimental: as §1

[6] = Osmolality of reconstituted Vacc-4x drug product; assay type: physicochemical
Experimental: The range of 10-100 mOsm/kg was defined based on the result obtained for the technical sample. Potential variability due to the four peptides is taken into account. For the drug product, approximately 1 mg of each of the four Vacc-4x peptides was used. The lyophilisate is reconstituted with 0.30 mL of WFI. Taking the acetic acid contents of the peptides listed in table 1 into account, the acetic acid content of Vacc-4x is approximately 0.40 mg in 0.30 mL of solution. The theoretical osmolality is approximately 23 mOsmol/L by calculation, which correlates well with the values determined in the Vacc-4x batches (20-23 mOsmol/kg).

[7] = 0.4 mg/injection, 12 immunizations
[8] = 26 subjects, two booster administrations
[9] = single intravenous dose, total peptide load
[10] = single intravenous infusion, up to 0.75 mg/kg of each peptide

Nc1cccc2c1C(=O)N(C1CCC(=O)NC1=O)C2=O (centres unmarked) [pomalidomide]
function of the T-cells (HIV-specific T-cells): a number of improvements in the function of the T-cells

C/C=C1\NC(=O)[C@H]2CSSCC/C=C/[C@H](CC(=O)N[C@H](C(C)C)C(=O)N2)OC(=O)[C@H](C(C)C)NC1=O [romidepsin, (1S,4S,7Z,10S,16E,21R)-7-ethylidene-4,21-bis(1-methylethyl)-2-oxa-12,13-dithia-5,8,20,23-tetraazabicyclo[8.7.6] tricos-16-ene-3,6,9,19,22-pentone]
activation of HIV-1 expression [1]: potently activates HIV-1 expression

Nc1cccc2c1CN(C1CCC(=O)NC1=O)C2=O (centres unmarked) [Lenalidomide]
function of the T-cells (HIV-specific T-cells): a number of improvements in the function of the T-cells

B1: Vacc-4x: four synthetic peptides (Vacc-10, Vacc-11, Vacc-12, Vacc-13 acetate) corresponding to conserved domains on HIV-1 p24; SEQ ID NOs 3, 6, 11, 18 (peptide)
chain 1: APTRAKRRVVQREKRAV
chain 2: DRPEGIEEEGGERDR
chain 3: QLLLNGSLAEEEIVI
chain 4: GGAKRRVVGGAKRRVVGGQREKR
modifications: also: acetate salts
subjects with treatment-related AEs (HIV positive subjects [2]; 0.4 mg group (20 subjects)): 8 subjects | DTH positive reactions (HIV positive subjects [2]; 0.4 mg or 1.2 mg per injection): observed for all subjects | SAEs during the period of immunization (HIV positive subjects [2]; 0.4 mg or 1.2 mg per injection): No SAEs were reported | subjects with treatment-related AEs (HIV positive subjects [2]; 1.2 mg group (20 subjects)): 12 subjects | DTH positive responses (induration and erythema), high dose versus low dose (HIV positive subjects [2]; 1.2 mg versus 0.4 mg): statistically significantly higher in the high dose | median treatment interruption (HIV positive subjects [2]; all subjects of the Phase II study, off ART): 31 months | subjects with treatment-related AEs (HIV positive subjects [2]; both dose groups, 40 subjects, 10 immunizations over 26 weeks): 20 subjects | decline in CD4 cells versus similar subjects who stopped treatment without Vacc-4x (HIV positive subjects [2]; comparison with subjects in the Netherlands): significantly slower decline in CD4 cells | CD4 counts during the immunization period (HIV positive subjects [2]; on ART): stable or increased | serious adverse events (HIV-positive subjects; [7]): no serious adverse events (SAEs) occurred | severity of adverse reactions (HIV-positive subjects; [7]): mild or moderate in severity except for severe local reactions in one subject | antibody response to Vacc-4x peptides (HIV-positive subjects; 11 subjects): no antibody response | cell-mediated immune response by delayed-type hypersensitivity (DTH) skin reaction (HIV-positive subjects; 11 subjects): All subjects experienced a cell-mediated immune response | subjects with cell-mediated immune response by γ IFN release ELISPOT (HIV-positive subjects; 11 subjects): 45 % of the subjects | treatment related fatigue-vertigo (HIV-positive subjects; 11 subjects): four | treatment related influenza-like symptoms (HIV-positive subjects; 11 subjects): two | treatment related irritated skin at injection site (HIV-positive subjects; 11 subjects): two | treatment related painful injection (HIV-positive subjects; 11 subjects): seven | subjects with events judged related to treatment (HIV-positive subjects; 11 subjects, 0.4 mg/injection, 12 immunizations): nine | subjects with one or more adverse events (HIV-positive subjects; 11 subjects, 12 immunizations of 0.4 mg/injection over 26 weeks, rhu-GM-CSF adjuvant): All subjects experienced one or more adverse events | adverse events possibly/probably related to the study treatment (HIV positive subjects [3]; 26 subjects): 60 | patients reporting swelling related to the immunization (HIV positive subjects [3]; 26 subjects): Five | related adverse events that were mild (HIV positive subjects [3]; 26 subjects): 98% | serious adverse events (HIV positive subjects [3]; 26 subjects): No patient reported serious adverse events | subjects reporting AEs (HIV positive subjects [3]; [8]): 23 subjects | total AEs reported (HIV positive subjects [3]; [8]): 74 AEs | duration of T cell responses induced by Vacc-4x peptides (HIV positive subjects [3]; before re-boost): up to seven | effect of re-boosting on CD4, CD8 and viral load (HIV positive subjects [3]; two booster administrations): no negative effect | limiting toxicology (rabbit): no limiting toxicology | local intradermal reactions (erythema, edema) versus control animals (rabbit): slightly more pronounced | systemic reactions (rabbit): no systemic reactions | percentage change in CD4 count between Week 28 and last CD4 assessment before resumption of ART, versus placebo ([4]; ITT analysis population): no effect compared with placebo | proportion of subjects requiring resumption of ART after ART cessation at Week 28, versus placebo ([4]; ITT analysis population): did not reduce | time to restarting ART versus placebo ([4]; ITT analysis population): similar | change in HIV-1 RNA from Week 28 through to Week 52 versus placebo ([4]; after ART cessation): statistically significant difference between groups in favour of Vacc-4x | safety concern ([4]; in vivo): No safety concern | Week 52 (LOCF) viral load versus placebo ([4]; post-hoc analysis): statistically significantly lower | average viral load versus placebo ([4]; subgroup who remained off ART until Week 52): lower in the Vacc-4x-treated subjects than the placebo group | HIV-1 RNA AUC versus placebo ([4]; subjects who remained off ART at Week 52): lower in the Vacc-4x group than in the placebo group | viral load (VL) set point versus placebo and versus historic preART values ([4]; with rhuGM-CSF (Leukine) as adjuvant): significant reduction | immunogenicity, T-cell proliferative responses ([4]; with rhuGM-CSF as adjuvant): immunogenic, inducing proliferative responses in both CD4 and CD8 T-cells | safety margin over the planned human dose level (rats; from no effect level): 500 fold | no effect level (rats; [9]): > 3 mg/kg | adverse reactions (rats; [10]): no adverse reactions | Proviral DNA, Geometric mean ([5]; Baseline, n 26): 22.3 copies/mL | Proviral DNA, Mean ([5]; Baseline, n 26): 98.4 copies/mL | Proviral DNA, Median ([5]; Baseline, n 26): 57.0 copies/mL | Proviral DNA, Geometric mean ratio (Week 4/Baseline) ([5]; n 26): 0.5 | Proviral DNA, Geometric mean ([5]; Week 4, n 26 (Table 3)): 11.4 Copies/mL | Proviral DNA, Mean ([5]; Week 4, n 26 (Table 3)): 93.9 Copies/mL | Proviral DNA, Median ([5]; Week 4, n 26 (Table 3)): 34.5 Copies/mL | Proviral DNA, Geometric mean ([5]; Week 4, n 27 (Table 2)): 12.9 copies/mL | Proviral DNA, Mean ([5]; Week 4, n 27 (Table 2)): 100.8 copies/mL | Proviral DNA, Median ([5]; Week 4, n 27 (Table 2)): 45.0 copies/mL | safety margin over the planned human dose level (mice; from no effect level): 500 fold | no effect level (mice; [9]): > 3 mg/kg | adverse reactions (mice; [10]): no adverse reactions | theoretical osmolality ([6]; by calculation, approx. 0.40 mg acetic acid in 0.30 mL): approximately 23 mOsmol/L | osmolality determined in the Vacc-4x batches ([6]; lyophilisate, approx. 1 mg of each peptide, reconstituted with 0.30 mL WFI): 20-23 mOsmol/kg
